Results reported in patent US20240270821A1, “GIP/GLP1/GCG TRI-RECEPTOR AGONISTS AND USES THEREOF” (priority 2023, published 2024).
Starred links: 1 amine or outer side, 2 acyl side, 3 side chain; linkers in the order of their positions; H or OH if unused. Non-standard residues stand in square brackets, D forms with d. Groups on a side chain read outwards from the residue. No end group written: not given here. *: point of attachment. C18 diacid = O=C(O)CCCCCCCCCCCCCCCCC(=O)*; γGlu = O=C(O)[C@H](CCC(=O)[*:2])N[*:1]; αMeL = CC(C)C[C@](C)(N)C(=O)O; Dab = NCC[C@H](N)C(=O)O; Dap = NC[C@H](N)C(=O)O; AEEA = NCCOCCOCC(=O)O; Aib = CC(C)(N)C(=O)O

What was measured:
Test in all cases: cell-based or functional assay
[1] = target: human glucagon receptor (human) (UniProt P47871)
human glucagon receptor (human), sequence (P47871 26-477): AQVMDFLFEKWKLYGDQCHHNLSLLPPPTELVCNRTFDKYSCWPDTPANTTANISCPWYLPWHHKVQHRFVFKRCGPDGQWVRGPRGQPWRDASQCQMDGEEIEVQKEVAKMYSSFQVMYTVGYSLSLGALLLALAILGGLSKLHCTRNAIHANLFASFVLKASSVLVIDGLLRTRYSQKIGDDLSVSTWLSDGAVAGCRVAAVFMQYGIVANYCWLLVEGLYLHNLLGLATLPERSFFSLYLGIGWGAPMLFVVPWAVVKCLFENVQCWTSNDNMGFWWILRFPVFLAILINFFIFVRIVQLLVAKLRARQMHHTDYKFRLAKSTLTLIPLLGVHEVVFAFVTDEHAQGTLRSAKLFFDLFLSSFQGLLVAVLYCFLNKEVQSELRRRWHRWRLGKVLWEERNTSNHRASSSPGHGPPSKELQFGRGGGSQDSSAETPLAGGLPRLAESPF

hGLP-1R = hGLP-1R (Homo sapiens, UniProt P43220)
hGLP-1R, sequence (P43220 24-463): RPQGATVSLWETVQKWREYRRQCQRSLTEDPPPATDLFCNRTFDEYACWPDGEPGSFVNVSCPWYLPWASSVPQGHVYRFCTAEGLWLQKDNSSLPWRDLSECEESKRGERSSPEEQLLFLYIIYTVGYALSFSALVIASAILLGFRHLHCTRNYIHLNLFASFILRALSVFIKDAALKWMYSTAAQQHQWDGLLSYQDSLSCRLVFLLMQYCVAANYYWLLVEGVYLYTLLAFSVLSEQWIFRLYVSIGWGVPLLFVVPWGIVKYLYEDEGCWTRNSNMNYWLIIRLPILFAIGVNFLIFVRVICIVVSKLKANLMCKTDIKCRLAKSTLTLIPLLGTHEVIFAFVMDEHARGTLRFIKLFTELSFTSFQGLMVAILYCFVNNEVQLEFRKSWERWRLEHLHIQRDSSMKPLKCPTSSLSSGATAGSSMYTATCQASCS

[2] = target: human GLP1-R (SNAP-GLP-1R expressed in HEK293 cells) (human) (UniProt P43220)
human GLP1-R (SNAP-GLP-1R expressed in HEK293 cells) (human), sequence (P43220 24-463): as above

[3] = target: T1, human GIP receptor (human) (UniProt P48546)
T1 sequence (looked up): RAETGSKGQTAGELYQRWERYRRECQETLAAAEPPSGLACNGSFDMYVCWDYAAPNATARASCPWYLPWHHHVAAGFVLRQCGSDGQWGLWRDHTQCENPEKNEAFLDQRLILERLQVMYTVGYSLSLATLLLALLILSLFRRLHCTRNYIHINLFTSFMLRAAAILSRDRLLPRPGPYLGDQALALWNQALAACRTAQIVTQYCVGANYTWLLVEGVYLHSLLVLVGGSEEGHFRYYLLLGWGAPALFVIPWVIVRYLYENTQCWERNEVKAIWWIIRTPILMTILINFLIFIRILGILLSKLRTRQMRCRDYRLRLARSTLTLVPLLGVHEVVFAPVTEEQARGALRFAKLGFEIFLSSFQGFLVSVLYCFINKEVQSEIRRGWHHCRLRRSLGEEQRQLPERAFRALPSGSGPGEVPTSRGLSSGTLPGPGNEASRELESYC

| Binder | Relative cAMP EC50 [1] [nM] | cAMP Rel EC50, nM (in the presence of 1% HSA) [1] [nM] | Relative cAMP EC50 (hGLP-1R) [nM] | cAMP Rel EC50, nM (in the presence of 1% HSA) (hGLP-1R) [nM] | GLP1R Internalization EC50 [2] [nM] | Internalization % TOP [2] [%] | Relative cAMP EC50 [3] [nM] | cAMP Rel EC50, nM (in the presence of 1% HSA) [3] [nM] |
| --- | --- | --- | --- | --- | --- | --- | --- | --- |
| YXQGTFTSDFSXXLDKKAQXAFIEWLLEGGPSSGAPPPSGS (synthetic construct; SITE 2: note = 2-Aminoisobutyric Acid; SITE 12: note = L-ornithine; SITE 13: note = alpha-methyl-leucine; SITE 17: note = Lysine is chemically modified through conjugation of the epsilon-amino group of the Lysine side chain with (2-[2-(2-Amino-ethoxy)-ethoxy]-acetyl)-(gamma-Glu)) [Example 78] | 7.06 | 2640 | 1.93 | 560 | 78.2 | 55 | 0.228 | 78.4 |
| Y[Aib]QGTFTSDFS[Dap][αMeL]LDKK([AEEA-γGlu-C18 diacid])AQ[Aib]AFIEYLLEGGPSSGAPPPGGS-NH2 (ends and bridges not checked) [Example 68] | 8.55 | 1160 | 3.07 | 612 | 95.2 | 33.8 | 0.46 | 85.1 |
| YXQGTFTSDFSXXLDKKAQXAFIEYLLEXGPSSGEPPPGEG (synthetic construct; SITE 2: note = 2-Aminoisobutyric Acid; SITE 12: note = L-ornithine; SITE 13: note = alpha-methyl-leucine; SITE 17: note = Lysine is chemically modified through conjugation of the epsilon-amino group of the Lysine side chain with (2-[2-(2-Amino-ethoxy)-ethoxy]-acetyl)2-(gamma-Glu)) [Example 69] | 4.75 | 387 | 3.25 | 279 | 71.9 | 58.2 | 0.136 | 25.6 |
| YXQGTFTSDFSXXLDKKAQXAFIEYLLEXGPSSGAPPPSGS (synthetic construct; SITE 2: note = 2-Aminoisobutyric Acid; SITE 12: note = L-ornithine; SITE 13: note = alpha-methyl-leucine; SITE 17: note = Lysine is chemically modified through conjugation of the epsilon-amino group of the Lysine side chain with (2-[2-(2-Amino-ethoxy)-ethoxy]-acetyl)2-(gamma-Glu)) [Example 75] | 4.51 | 1040 | 4.4 | 878 | 61.8 | 51.9 | 0.0578 | 16.8 |
| YXQGTFTSDFSRXLDKKAQXAFIEYLLEXGPSSGAPPPSGS (synthetic construct; SITE 2: note = 2-Aminoisobutyric Acid; SITE 13: note = alpha-methyl-leucine; SITE 17: note = Lysine is chemically modified through conjugation of the epsilon-amino group of the Lysine side chain with (2-[2-(2-Amino-ethoxy)-ethoxy]-acetyl)-(gamma-Glu)-CO-(CH2) 16-CO2H; SITE 20: n) [Example 79] | 3.08 | 903 | 1.8 | 437 | 56.6 | 45.3 | 0.0773 | 14.3 |
| YXQGTFTSDFSXXLDKKAQXAFIEYLLEXGPSSGAPPPGEG (synthetic construct; SITE 2: note = 2-Aminoisobutyric Acid; SITE 12: note = L-ornithine; SITE 13: note = alpha-methyl-leucine; SITE 17: note = Lysine is chemically modified through conjugation of the epsilon-amino group of the Lysine side chain with (2-[2-(2-Amino-ethoxy)-ethoxy]-acetyl)2-(gamma-Glu)) [Example 70] | 6.04 | 717 | 2.71 | 620 | 60 | 61.3 | 0.102 | 27.4 |
| YXQGTFTSDFSXXLDKKAQXAFIEYLLEXGPSSGAPPPSEG (synthetic construct; SITE 2: note = 2-Aminoisobutyric Acid; SITE 12: note = L-ornithine; SITE 13: note = alpha-methyl-leucine; SITE 17: note = Lysine is chemically modified through conjugation of the epsilon-amino group of the Lysine side chain with (2-[2-(2-Amino-ethoxy)-ethoxy]-acetyl)2-(gamma-Glu)) [Example 71] | 8.74 | 2800 | 3.12 | 1010 | 58.8 | 68.6 | 0.105 | 48.1 |
| Y[Aib]QGTFTSDFS[Dab][αMeL]LDKK([AEEA-γGlu-C18 diacid])AQ[Aib]AFIEYLLEGGPSSGAPPPGGS-NH2 [Example 67] | 3.7 | 781 | 4.07 | 683 | 50.9 | 31.1 | 0.34 | 73.3 |
| YXQGTFTSDFSXXLDKKAQXAFIEYLLEGGPSSGAPPPGGSX (synthetic construct; SITE 2: note = 2-Aminoisobutyric Acid; SITE 12: note = L-ornithine; SITE 13: note = alpha-methyl-leucine; SITE 17: note = Lysine is chemically modified through conjugation of the epsilon-amino group of the Lysine side chain with (2-[2-(2-Amino-ethoxy)-ethoxy]-acetyl)-(gamma-Glu)) [Example 66] | 3.71 | 415 | 3.86 | 329 | 42.1 | 46.3 | 0.219 | 29.9 |
